Here are results for five sequences from the supplement of paper PMC5998384.

Data set [1] relates to HeLa Kyoto. Description: solubility change mitosis vs G1/S (difference of NP-40 vs SDS log2 ratios) (log2 ratio difference); higher = more soluble in mitosis.
In data set [2] the test system is HeLa Kyoto. The experiment in a line: solubility in G1/S (NP-40 vs SDS abundance) (log2 ratio); higher = more soluble. The following applies: cell cycle stage: G1/S.
Data set [3] deals with HeLa Kyoto. The experiment in a line: thermal stability score vs G1/S (z-score of summed log2 fold changes over temperatures); higher = more thermally stable than in G1/S.
The mark [4] stands for this setting: cell cycle stage: early G1 (4.5 h after nocodazole release).
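Wherever solubility change mitosis vs G1/S (difference of NP-40 vs SDS log2 ratios) is given: synchronized HeLa Kyoto cells (double thymidine block for G1/S, nocodazole release for mitosis), protein amounts in NP-40 versus SDS lysates quantified by mass spectrometry, three biological replicates.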
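Wherever solubility in G1/S (NP-40 vs SDS abundance) is given: HeLa Kyoto cells arrested at G1/S by double thymidine block, proteins quantified by TMT10plex mass spectrometry in mild NP-40 versus SDS extracts, three biological replicates.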
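Wherever thermal stability score vs G1/S (z-score of summed log2 fold changes over temperatures) is given: synchronized HeLa Kyoto cells, proteins quantified by TMT10plex mass spectrometry, three biological replicates, mitosis taken 0.5 h after nocodazole release, G1/S directly after double thymidine block.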

Turning to “MGFGSDLKNSHEAVLKLQDWELRLLETVKKFMALRIKSDKEYASTLQNLCNQVDKESTVQMNYVSNVSKSWLLMIQQTEQLSRIMKTHAEDLNSGPLHRLTMMIKDKQQVKKSYIGVHQQIEAEMIKVTKTELEKLKCSYRQLIKEMNSAKEKYKEALAKGKETEKAKERYDKATMKLHMLHNQYVLALKGAQLHQNQYYDITLPLLLDSLQKMQEEMIKALKGIFDEYSQITSLVTEEIVNVHKEIQMSVEQIDPSTEYNNFIDVHRTTAAKEQEIEFDTSLLEENENLQANEIMWNNLTAESLQVMLKTLAEELMQTQQMLLNKEEAVLELEKRIEESSETCEKKSDIVLLLSQKQALEELKQSVQQLRCTEAKFSAQKELLEQKVQENDGKEPPPVVNYEEDARSVTSMERKERLSKFESIRHSIAGIIRSPKSALGSSALSDMISISEKPLAEQDWYHGAIPRIEAQELLKKQGDFLVRESHGKPGEYVLSVYSDGQRRHFIIQYVDNMYRFEGTGFSNIPQLIDHHYTTKQVITKKSGVVLLNPIPKDKKWILSHEDVILGELLGKGNFGEVYKGTLKDKTSVAVKTCKEDLPQELKIKFLQEAKILKQYDHPNIVKLIGVCTQRQPVYIIMELVSGGDFLTFLRRKKDELKLKQLVKFSLDAAAGMLYLESKNCIHRDLAARNCLVGENNVLKISDFGMSRQEDGGVYSSSGLKQIPIKWTAPEALNYGRYSSESDVWSFGILLWETFSLGVCPYPGMTNQQAREQVERGYRMSAPQHCPEDISKIMMKCWDYKPENRPKFSELQKELTIIKRKLT [FER]”, the “solubility change mitosis (log2)” value with HeLa Kyoto [1] was -0.106. Besides, the “solubility in G1/S (log2)” value in the data set on HeLa Kyoto [2] is -0.0779. The results for the thermal stability score in the data set with HeLa Kyoto [3] (setting [4]) and with HeLa Kyoto [3] (cell cycle stage: mitosis) were -0.138 and -0.342, respectively.
On to “MGFNLTFHLSYKFRLLLLLTLCLTVVGWATSNYFVGAIQEIPKAKEFMANFHKTLILGKGKTLTNEASTKKVELDNCPSVSPYLRGQSKLIFKPDLTLEEVQAENPKVSRGRYRPQECKALQRVAILVPHRNREKHLMYLLEHLHPFLQRQQLDYGIYVIHQAEGKKFNRAKLLNVGYLEALKEENWDCFIFHDVDLVPENDFNLYKCEEHPKHLVVGRNSTGYRLRYSGYFGGVTALSREQFFKVNGFSNNYWGWGGEDDDLRLRVELQRMKISRPLPEVGKYTMVFHTRDKGNEVNAERMKLLHQVSRVWRTDGLSSCSYKLVSVEHNPLYINITVDFWFGA [B4GALT4]”, for which the “solubility change mitosis (log2)” value in the data set on HeLa Kyoto [1] is -0.14. Further, the “solubility in G1/S (log2)” value in the data set on HeLa Kyoto [2] came out at 0.167. Besides, the thermal stability score is -0.773 in the data set with HeLa Kyoto [3] (setting [4]) and -0.781 with HeLa Kyoto [3] (cell cycle stage: mitosis).
The matching figures for “MGKRDNRVAYMNPIAMARSRGPIQSSGPTIQDYLNRPRPTWEEVKEQLEKKKKGSKALAEFEEKMNENWKKELEKHREKLLSGSESSSKKRQRKKKEKKKSGRYSSSSSSSSDSSSSSSDSEDEDKKQGKRRKKKKNRSHKSSESSMSETESDSKDSLKKKKKSKDGTEKEKDIKGLSKKRKMYSEDKPLSSESLSESEYIEEVRAKKKKSSEEREKATEKTKKKKKHKKHSKKKKKKAASSSPDSP [FAM133B]”: 0.889, -1.16, -5.3 and -3.34.
On the same counts, the results for “MIPVSLVVVVVGGWTVVYLTDLVLKSSVYFKHSYEDWLENNGLSISPFHIRWQTAVFNRAFYSWGRRKARMLYQWFNFGMVFGVIAMFSSFFLLGKTLMQTLAQMMADSPSSYSSSSSSSSSSSSSSSSSSSSSSSLHNEQVLQVVVPGINLPVNQLTYFFTAVLISGVVHEIGHGIAAIREQVRFNGFGIFLFIIYPGAFVDLFTTHLQLISPVQQLRIFCAGIWHNFVLALLGILALVLLPVILLPFYYTGVGVLITEVAEDSPAIGPRGLFVGDLVTHLQDCPVTNVQDWNECLDTIAYEPQIGYCISASTLQQLSFPVRAYKRLDGSTECCNNHSLTDVCFSYRNNFNKRLHTCLPARKAVEATQVCRTNKDCKKSSSSSFCIIPSLETHTRLIKVKHPPQIDMLYVGHPLHLHYTVSITSFIPRFNFLSIDLPVVVETFVKYLISLSGALAIVNAVPCFALDGQWILNSFLDATLTSVIGDNDVKDLIGFFILLGGSVLLAANVTLGLWMVTAR [MBTPS2]” are -0.109, -0.23, -0.0953 and -0.633.
With “MKAGATSMWASCCGLLNEVMGTGAVRGQQSAFAGATGPFRFTPNPEFSTYPPAATEGPNIVCKACGLSFSVFRKKHVCCDCKKDFCSVCSVLQENLRRCSTCHLLQETAFQRPQLMRLKVKDLRQYLILRNIPIDTCREKEDLVDLVLCHHGLGSEDDMDTSSLNSSRSQTSSFFTRSFFSNYTAPSATMSSFQGELMDGDQTSRSGVPAQVQSEITSANTEDDDDDDDEDDDDEEENAEDRNPGLSKERVRASLSDLSSLDDVEGMSVRQLKEILARNFVNYSGCCEKWELVEKVNRLYKENEENQKSYGERLQLQDEEDDSLCRICMDAVIDCVLLECGHMVTCTKCGKRMSECPICRQYVVRAVHVFKS [RNF34]”, in the data set on HeLa Kyoto [1], the “solubility change mitosis (log2)” value was -0.0561. Also, the “solubility in G1/S (log2)” value in the data set with HeLa Kyoto [2] turned out to be 0.0303. The results for the thermal stability score with HeLa Kyoto [3] (setting [4]) and with HeLa Kyoto [3] (cell cycle stage: mitosis) were 0.687 and 0.834, respectively.
